Laboratory results as given in patent US20160068613A1.

target: human neonatal Fc-receptor (FcRn) (human) (UniProt P55899); assay: FcRn affinity chromatography
Sequence (P55899 24-297 limits assumed, chain 1 of 2): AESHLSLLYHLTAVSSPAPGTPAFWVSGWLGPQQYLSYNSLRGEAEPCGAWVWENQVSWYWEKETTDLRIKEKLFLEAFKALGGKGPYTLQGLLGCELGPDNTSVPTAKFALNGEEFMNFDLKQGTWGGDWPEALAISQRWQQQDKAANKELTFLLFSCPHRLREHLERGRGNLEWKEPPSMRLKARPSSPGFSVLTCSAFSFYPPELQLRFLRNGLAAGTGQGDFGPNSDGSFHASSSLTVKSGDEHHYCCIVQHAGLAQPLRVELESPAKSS
Sequence (P61769 21-119 limits assumed, chain 2 of 2, further chain): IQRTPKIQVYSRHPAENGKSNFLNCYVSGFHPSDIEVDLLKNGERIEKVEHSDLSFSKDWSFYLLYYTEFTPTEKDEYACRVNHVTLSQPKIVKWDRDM

Substance | retention time [min] | retention time on FcRn affinity column [min] | FcRn-affinity column retention time [min]
anti-HER2 antibody, symmetrically modified, K317H | 46.3 |  | 
anti-HER2 antibody, symmetrically modified, K290H | 46.2 |  | 
anti-HER2 antibody, symmetrically modified, N434H | 52 |  | 
bispecific anti-VEGF/ANG2 antibody (knobs-into-holes), one chain with H310A/H433A/Y436A (bispecific antibody) |  | 46.7 | 
anti-HER2 antibody, symmetrically modified, D98E | 46.2 |  | 
bispecific anti-VEGF/ANG2 antibody (knobs-into-holes), no FcRn affecting mutation (bispecific antibody) |  | 51.8 | 
anti-HER2 antibody, symmetrically modified, L309H | 45.5 |  | 
bispecific anti-VEGF/ANG2 antibody (knobs-into-holes), one chain with L251D/L314D/L432D (bispecific antibody) |  | 46.3 | 
anti-HER2 antibody, symmetrically modified, E258H | 45.6 |  | 
anti-HER2 antibody, symmetrically modified, K288E | 45.2 |  | 
bispecific anti-VEGF/ANG2 antibody (knobs-into-holes), one chain with H310A (bispecific antibody) |  | 48.4 | 
bispecific anti-VEGF/ANG2 antibody (knobs-into-holes), one chain with I253A (bispecific antibody) |  | 48.8 | 
anti-HER2 antibody, symmetrically modified, T256H | 46 |  | 
anti-HER2 antibody, wild-type | 46.3 |  | 
anti-HER2 antibody, symmetrically modified, Q311H | 46.3 |  | 
bispecific anti-VEGF/ANG2 antibody (knobs-into-holes), one chain with M252Y/S254T/T256E (bispecific antibody) |  | 56.2 | 
bispecific anti-VEGF/ANG2 antibody (knobs-into-holes), one chain with H435A (bispecific antibody) |  | 48.8 | 
IgG1 Fc-region, symmetric, L234A/L235A/P329G + Y436A |  |  | 41.3
anti-HER2 antibody, symmetrically modified, R255D | 41.4 |  | 
anti-HER2 antibody, symmetrically modified, E430H | 46.4 |  | 
